From IntAct's records for PubMed 23085078

B1: mRNA-decapping enzyme 1A (Homo sapiens), Q9NPI6 (parent)
chain: MEALSRAGQEMSLAALKQHDPYITSIADLTGQVALYTFCPKANQWEKTDIEGTLFVYRRSASPYHGFTIVNRLNMHNLVEPVNKDLEFQLHEPFLLYRNASLSIYSIWFYDKNDCHRIAKLMADVVEEETRRSQQAARDKQSPSQANGCSDHRPIDILEMLSRAKDEYERNQMGDSNISSPGLQPSTQLSNLGSTETLEEMPSGSQDKSAPSGHKHLTVEELFGTSLPKEQPAVVGLDSEEMERLPGDASQKEPNSFLPFPFEQLGGAPQSETLGVPSAAHHSVQPEITTPVLITPASITQSNEKHAPTYTIPLSPVLSPTLPAEAPTAQVPPSLPRNSTMMQAVKTTPRQRSPLLNQPVPELSHASLIANQSPFRAPLNVTNTAGTSLPSVDLLQKLRLTPQHDQIQTQPLGKGAMVASFSPAAGQLATPESFIEPPSKTAAARVAASASLSNMVLAPLQSMQQNQDPEVFVQPKVLSSAIPVAGAPLVTATTTAVSSVLLAPSVFQQTVTRSSDLERKASSPSPLTIGTPESQRKPSIILSKSQLQDTLIHLIKNDSSFLSTLHEVYLQVLTKNKDNHNL

Variants of: B1
Settings: with PNRC2, Q9NPJ4-1

Variant | effect of a mutation on the interaction
MEALSRAGQEMSLAALKQHDPYITSIADLTGQVALYTFCPKANQAEKTDIEGTLFVYRRSASPYHGFTIVNRLNMHNLVEPVNKDLEFQLHEPFLLYRNASLSIYSIWFYDKNDCHRIAKLMADVVEEETRRSQQAARDKQSPSQANGCSDHRPIDILEMLSRAKDEYERNQMGDSNISSPGLQPSTQLSNLGSTETLEEMPSGSQDKSAPSGHKHLTVEELFGTSLPKEQPAVVGLDSEEMERLPGDASQKEPNSFLPFPFEQLGGAPQSETLGVPSAAHHSVQPEITTPVLITPASITQSNEKHAPTYTIPLSPVLSPTLPAEAPTAQVPPSLPRNSTMMQAVKTTPRQRSPLLNQPVPELSHASLIANQSPFRAPLNVTNTAGTSLPSVDLLQKLRLTPQHDQIQTQPLGKGAMVASFSPAAGQLATPESFIEPPSKTAAARVAASASLSNMVLAPLQSMQQNQDPEVFVQPKVLSSAIPVAGAPLVTATTTAVSSVLLAPSVFQQTVTRSSDLERKASSPSPLTIGTPESQRKPSIILSKSQLQDTLIHLIKNDSSFLSTLHEVYLQVLTKNKDNHNL [W45A] | decreasing interaction strength
MEALSRAGQEMSLAALKQHDPYITSIADLTGQVALATFCPKANQWEKTDIEGTLFVYRRSASPYHGFTIVNRLNMHNLVEPVNKDLEFQLHEPFLLYRNASLSIYSIWFYDKNDCHRIAKLMADVVEEETRRSQQAARDKQSPSQANGCSDHRPIDILEMLSRAKDEYERNQMGDSNISSPGLQPSTQLSNLGSTETLEEMPSGSQDKSAPSGHKHLTVEELFGTSLPKEQPAVVGLDSEEMERLPGDASQKEPNSFLPFPFEQLGGAPQSETLGVPSAAHHSVQPEITTPVLITPASITQSNEKHAPTYTIPLSPVLSPTLPAEAPTAQVPPSLPRNSTMMQAVKTTPRQRSPLLNQPVPELSHASLIANQSPFRAPLNVTNTAGTSLPSVDLLQKLRLTPQHDQIQTQPLGKGAMVASFSPAAGQLATPESFIEPPSKTAAARVAASASLSNMVLAPLQSMQQNQDPEVFVQPKVLSSAIPVAGAPLVTATTTAVSSVLLAPSVFQQTVTRSSDLERKASSPSPLTIGTPESQRKPSIILSKSQLQDTLIHLIKNDSSFLSTLHEVYLQVLTKNKDNHNL [Y36A] | decreasing interaction strength
MEALSRAGQEMSLAALKQHDPYITSIADLTGQVALYTFCPKANQWEKTDIEGTLFVYRRSASPYHGFTIVNRLNMHNLVEPVNKDLEFQLHEPALLYRNASLSIYSIWFYDKNDCHRIAKLMADVVEEETRRSQQAARDKQSPSQANGCSDHRPIDILEMLSRAKDEYERNQMGDSNISSPGLQPSTQLSNLGSTETLEEMPSGSQDKSAPSGHKHLTVEELFGTSLPKEQPAVVGLDSEEMERLPGDASQKEPNSFLPFPFEQLGGAPQSETLGVPSAAHHSVQPEITTPVLITPASITQSNEKHAPTYTIPLSPVLSPTLPAEAPTAQVPPSLPRNSTMMQAVKTTPRQRSPLLNQPVPELSHASLIANQSPFRAPLNVTNTAGTSLPSVDLLQKLRLTPQHDQIQTQPLGKGAMVASFSPAAGQLATPESFIEPPSKTAAARVAASASLSNMVLAPLQSMQQNQDPEVFVQPKVLSSAIPVAGAPLVTATTTAVSSVLLAPSVFQQTVTRSSDLERKASSPSPLTIGTPESQRKPSIILSKSQLQDTLIHLIKNDSSFLSTLHEVYLQVLTKNKDNHNL [F94A] | decreasing interaction strength

The remaining lines, values ahead:

effect of a mutation on the interaction | Variant
decreasing interaction strength | MEALSRAGQEMSLAALKQHDPYITSIADLTGQVALYTFCPKANQWEKTDIEGTLFVYRRSASPYHGFTIVNRLNMHNLVEPVNKDLEFQLHEPFLLYANASLSIYSIWFYDKNDCHRIAKLMADVVEEETRRSQQAARDKQSPSQANGCSDHRPIDILEMLSRAKDEYERNQMGDSNISSPGLQPSTQLSNLGSTETLEEMPSGSQDKSAPSGHKHLTVEELFGTSLPKEQPAVVGLDSEEMERLPGDASQKEPNSFLPFPFEQLGGAPQSETLGVPSAAHHSVQPEITTPVLITPASITQSNEKHAPTYTIPLSPVLSPTLPAEAPTAQVPPSLPRNSTMMQAVKTTPRQRSPLLNQPVPELSHASLIANQSPFRAPLNVTNTAGTSLPSVDLLQKLRLTPQHDQIQTQPLGKGAMVASFSPAAGQLATPESFIEPPSKTAAARVAASASLSNMVLAPLQSMQQNQDPEVFVQPKVLSSAIPVAGAPLVTATTTAVSSVLLAPSVFQQTVTRSSDLERKASSPSPLTIGTPESQRKPSIILSKSQLQDTLIHLIKNDSSFLSTLHEVYLQVLTKNKDNHNL [R98A]
disrupting interaction strength | MEALSRAGQEMSLAALKQHDPYITSIADLTGQVALYTFCPKANQWEKTDIEGTLFVYRRSASPYHGFTIVNRLNMHNLVEPVNKDLEFQLHEPFLAYRNASLSIYSIWFYDKNDCHRIAKLMADVVEEETRRSQQAARDKQSPSQANGCSDHRPIDILEMLSRAKDEYERNQMGDSNISSPGLQPSTQLSNLGSTETLEEMPSGSQDKSAPSGHKHLTVEELFGTSLPKEQPAVVGLDSEEMERLPGDASQKEPNSFLPFPFEQLGGAPQSETLGVPSAAHHSVQPEITTPVLITPASITQSNEKHAPTYTIPLSPVLSPTLPAEAPTAQVPPSLPRNSTMMQAVKTTPRQRSPLLNQPVPELSHASLIANQSPFRAPLNVTNTAGTSLPSVDLLQKLRLTPQHDQIQTQPLGKGAMVASFSPAAGQLATPESFIEPPSKTAAARVAASASLSNMVLAPLQSMQQNQDPEVFVQPKVLSSAIPVAGAPLVTATTTAVSSVLLAPSVFQQTVTRSSDLERKASSPSPLTIGTPESQRKPSIILSKSQLQDTLIHLIKNDSSFLSTLHEVYLQVLTKNKDNHNL [L96A]
